The target of this test is hFc-hROR1 (fusion protein of the extracellular domain of human ROR1 and the Fc domain of human IgG1) (human, UniProt P01857 99-330 = IgG part). Put plainly: SPR. (In general: Surface plasmon resonance follows binding to a sensor surface in real time, without labels.)

Numbering of substitutions follows the chain as printed.

hFc-hROR1 (fusion protein of the extracellular domain of human ROR1 and the Fc domain of human IgG1), sequence (P01857 other isoform, or with tags, fused parts or gaps): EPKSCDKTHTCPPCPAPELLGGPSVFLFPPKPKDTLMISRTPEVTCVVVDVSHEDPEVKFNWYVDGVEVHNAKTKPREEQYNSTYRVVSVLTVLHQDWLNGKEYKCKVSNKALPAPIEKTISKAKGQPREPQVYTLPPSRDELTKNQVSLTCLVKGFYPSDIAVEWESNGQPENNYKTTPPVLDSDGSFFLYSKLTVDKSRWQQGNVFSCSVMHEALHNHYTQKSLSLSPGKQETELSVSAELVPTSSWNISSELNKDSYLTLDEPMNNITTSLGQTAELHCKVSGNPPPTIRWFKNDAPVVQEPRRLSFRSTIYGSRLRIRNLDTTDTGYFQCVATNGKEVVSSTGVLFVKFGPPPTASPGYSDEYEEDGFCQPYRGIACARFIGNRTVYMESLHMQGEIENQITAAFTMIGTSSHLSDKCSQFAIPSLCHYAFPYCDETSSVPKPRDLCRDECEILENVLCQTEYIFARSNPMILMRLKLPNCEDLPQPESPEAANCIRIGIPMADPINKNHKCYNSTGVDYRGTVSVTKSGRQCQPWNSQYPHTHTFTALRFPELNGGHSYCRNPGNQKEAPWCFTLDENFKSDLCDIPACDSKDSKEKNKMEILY

B1: XBR1-402 chimeric rabbit/human Fab (Fab, V domains shown)
VH: QEQQKESGGGLFKPTDTLTLTCTASGFDISSYYMSWVRQAPGNGLEWIGAIGISGNAYYASWAKSRSTITRNTNLNTVTLKMTSLTAADTATYFCARDHPTYGMDLWGPGTLVTVSS
VL: SYELTQLPSVSVSLGQTARITCEGNNIGSKAVHWYQQKPGLAPGLLIYDDDERPSGVPDRFSGSNSGDTATLTISGAQAGDEADYYCQVWDSSAYVFGGGTQLTVTG
A word on the Kd: it is the constant that tells how readily two partners part at equilibrium. Molecule B1 returned a Kd of 5.81 nM.

B2: ERR1-403 chimeric rabbit/human Fab (Fab, V domains shown)
VH: QEQLKESGRGLVQPGGSLKLSCKASGFDFSGWYMTWVRQAPGKGLEWIGTIGTTKGRTYYASWVNGRFTISSDNAQNTVDLQMNSLTAADRATYFCVRGSDYFDLWGPGTLVTISS
VL: SYELTQLPSVSVSLGQTARITCGGNSIGSKAVNWYQQKPGLAPGLLIYDDDERPSGVPARFSGSNSGDTATLTISGAQAGDEADYYCQLWDSSAGAYVFGGGTQLTVTG
B2 gave a Kd of 41.6 nM.

B3: ERR1-TOP43 chimeric rabbit/human Fab (Fab, V domains shown)
VH: QSLEESGGRLVTPGTPLTLTCTVSGFSLSSYWMSWVRQAPGKGLEWIGAIYGSGNTYYASWAKGRFTISKTSTTVDLKITSPTTEDTATYFCARDVHSTATDLWGPGTLVTISS
VL: B2 VL with S26N, D49N, A59D
The molecule B3 displayed a Kd of 1.11 nM.

B4: ERR1-301 chimeric rabbit/human Fab (Fab, V domains shown)
VH: QEQLEESGGGLVTPGGSLTLTCTASGFTISTYHMSWVRQAPGKGLEWIGSIYAGSGSTYYASWVNGRFTISSNTTQNTVSLQMNSLTVADTATYFCARDHPSYGMDLWGPGTLVTVSS
VL: B2 VL with A59D, G63A, G80E, G95V
B4 had a dissociation constant (Kd) of 118 nM.

The values above are taken from US20210139579A1 (published 2021).
